According to patent publication US9850504B2, “Method for the enzymatic production of 3-buten-2-one” (Scientist of Fortune S.A., priority 2013, dated 2017):

Assays:
[1] = molecular target: 3-hydroxypropionyl-CoA dehydratase from Sulfolobus tokodaii, SEQ ID NO: 3 (Uniprot F9VNG3) (Sulfurisphaera tokodaii, UniProt F9VNG3); assay: Kinetic parameters of the dehydration of 4-hydroxy-2-butanone to 3-buten-2-one; format: biochemical; details: 0-300 mM 4-hydroxy-2-butanone, 20 mM MgCl2, pH 7.5, 37° C
Method: Each assay was started with the addition of a specific enzyme at a final concentration of 4 mg/ml. Control assays were performed in which either no enzyme was added, or no substrate was added. Test tubes were incubated for 23 hours with shaking at 37° C. Reaction products were extracted with an equal volume of ethyl acetate and then analyzed by HPLC. Commercial 3-buten-2-one (Sigma) was used as reference. […] The mobile phase consisted of 98:2 (v/v) H2O/Acetonitrile containing 8.4 mM sulfuric acid. Retention time of 3-buten-2-one under these conditions was 5.4 min.
Kinetic parameters of the reaction were determined for purified recombinant 3-hydroxypropionyl-CoA dehydratase from Sulfolobus tokodaii under the following conditions:
4 mg/ml 3-Hydroxypropionyl-CoA dehydratase S. tokodaii
Test tubes were incubated for 0, 20, 60, 120 and 180 min with shaking at 37° C. The formation of 3-buten-2-one was quantified using commercial 3-buten-2-one according to the procedure described in Example 4.

[2] = molecular target: T1, Secondary alcohol dehydrogenase from Rhodococcus ruber, SEQ ID NO: 12 (Uniprot Q8KLT9) (Rhodococcus ruber, UniProt Q8KLT9); assay: Kinetic parameters of the reduction of 3-buten-2-one to 3-buten-2-ol; format: biochemical; details: 0-40 mM 3-buten-2-one, 40 mM NADPH, pH 7.5, 37° C
T1 sequence (Q8KLT9 1-346): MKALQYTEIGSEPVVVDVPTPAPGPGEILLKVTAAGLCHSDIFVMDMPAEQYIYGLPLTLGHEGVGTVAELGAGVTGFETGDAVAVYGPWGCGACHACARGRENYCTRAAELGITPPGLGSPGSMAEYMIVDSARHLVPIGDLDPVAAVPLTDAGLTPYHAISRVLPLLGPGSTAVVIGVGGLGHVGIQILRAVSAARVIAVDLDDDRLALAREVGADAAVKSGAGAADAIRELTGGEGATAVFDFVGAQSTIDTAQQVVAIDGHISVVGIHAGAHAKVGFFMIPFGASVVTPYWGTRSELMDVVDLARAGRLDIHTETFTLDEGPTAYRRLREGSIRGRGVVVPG
Method: (§1) The assays were incubated for various time periods (0, 20, 40, 60 120 and 240 min) with shaking at 37° C. […] The reaction products were then extracted with an equal volume of ethyl acetate. 150 μl of the upper ethyl acetate phase was transferred into a clean vial for HPLC analysis. Commercial 3-buten-2-ol (Sigma) was used as reference. […] The mobile phase consisted of 98:2 (v/v) H2O/acetonitrile containing 8.4 mM sulfuric acid. Retention time of 3-buten-2-ol and 3-buten-2-one under these conditions was 3.9 and 5.4 min, respectively.
(§2) The studied enzymatic reaction was carried out under the following conditions at 37° C.:
1 mg/ml alcohol dehydrogenase from R. ruber.
(§3) Reaction volume was 200 μl.
(§4) The assays were incubated for 0, 10, 20, 40, 60 and 120 min with shaking at 37° C. The formation of 3-buten-2-ol was quantified according to the protocol described in Example 8.

[3] = molecular target: linalool dehydratase-isomerase from Castellaniella defragrans (formerly Alcaligenes defragrans), SEQ ID NO: 19 (Castellaniella defragrans, UniProt E1XUJ2); assay: 1,3-butadiene production from 3-buten-2-ol (GC/FID); format: biochemical; details: 0-80 mM 3-buten-2-ol, cell lysate with recombinant enzyme, 2 mM DTT, pH 7.5, 37° C, 1-22 hours
Sequence of linalool dehydratase-isomerase from Castellaniella defragrans (formerly Alcaligenes defragrans), SEQ ID NO: 19 (E1XUJ2 27-397): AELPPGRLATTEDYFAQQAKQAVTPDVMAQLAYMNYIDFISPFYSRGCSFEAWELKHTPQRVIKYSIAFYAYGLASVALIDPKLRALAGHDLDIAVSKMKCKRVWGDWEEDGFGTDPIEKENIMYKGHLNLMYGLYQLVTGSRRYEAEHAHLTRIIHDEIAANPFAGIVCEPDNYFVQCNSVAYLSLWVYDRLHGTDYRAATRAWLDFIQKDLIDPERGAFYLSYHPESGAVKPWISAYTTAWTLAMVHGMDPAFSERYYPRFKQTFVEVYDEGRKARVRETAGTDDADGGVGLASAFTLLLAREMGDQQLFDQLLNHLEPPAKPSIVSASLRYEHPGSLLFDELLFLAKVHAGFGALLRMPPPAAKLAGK
From the text: The sequence of linalool dehydratase-isomerase inferred from the genome of Castellaniella defragrans (formerly Alcaligenes defragrans) was generated by oligonucleotide concatenation to fit the codon usage of E. coli. A stretch of 6 histidine codons was inserted after the methionine initiation codon to provide an affinity tag for purification. The gene thus synthesized was cloned in a pET25b(+) expression vector (the vector was constructed by GeneArt AG). Competent E. coli BL21(DE3) cells (Novagen) were transformed with this vector according to the heat shock procedure. As negative control, E. coli BL21(DE3) strain was transformed with empty vector. The transformed cells were grown with shaking (160 rpm) on ZYM-5052 auto-induction medium (Studier F W, Prot. Exp. Pur. 41 (2005), 207-234) for 6 hours at 37° C. and protein expression was continued at 18° C. overnight (approximately 12 hours). The cells were collected by centrifugation at 4° C., 10,000 rpm for 20 min and the pellets were frozen at −80° C.
The pellets from 100 ml of culture cells were thawed on ice and resuspended in 4 ml of 50 mM Tris-HCl pH 7.5. […] Protein concentration was determined using the Bradford method (Biorad). […]
0.25 ml of cell lysate containing recombinant linalool dehydratase-isomerase was added to 0.5 ml of reaction mixture. […] 1,3-butadiene production was analyzed by GC/FID procedure. […]

[4] = substrate: CC(=O)CC(=O)SCCNC(=O)CCNC(=O)[C@H](O)C(C)(C)COP(=O)(O)OP(=O)(O)OC[C@H]1O[C@@H](n2cnc3c(N)ncnc32)[C@H](O)[C@@H]1OP(=O)(O)O; assay: purified protein, by the assay type; details: other: acetoacetyl-CoA variable (0-32 mM), NADPH 60 mM, pH 7.5, 37° C
[5] = substrate: C=CC(C)=O; assay: Kinetic parameters of the reduction of 3-buten-2-one to 3-buten-2-ol; format: biochemical, Lactobacillus kefiri; details: other: 0-40 mM 3-buten-2-one, 40 mM NADPH, pH 7.5, 37° C
Method: as §1, §2
1 mg/ml alcohol dehydrogenase from L. kefiri.
as §3, §4

[6] = substrate: C=CC(C)=O; assay: Enzyme-catalyzed reduction of 3-buten-2-one to 3-buten-2-ol, HPLC-based; format: biochemical, Thermoanaerobium brockii; details: other: 0-40 mM 3-buten-2-one, 40 mM NADPH, 0.1 mM ZnCl2, pH 7.5, 37° C
Method: as §2
1 mg/ml alcohol dehydrogenase from Th. brockii
as §3, §1

Sequence of 3-hydroxypropionyl-CoA dehydratase from Sulfolobus tokodaii, SEQ ID NO: 3 (Uniprot F9VNG3) (F9VNG3 1-257): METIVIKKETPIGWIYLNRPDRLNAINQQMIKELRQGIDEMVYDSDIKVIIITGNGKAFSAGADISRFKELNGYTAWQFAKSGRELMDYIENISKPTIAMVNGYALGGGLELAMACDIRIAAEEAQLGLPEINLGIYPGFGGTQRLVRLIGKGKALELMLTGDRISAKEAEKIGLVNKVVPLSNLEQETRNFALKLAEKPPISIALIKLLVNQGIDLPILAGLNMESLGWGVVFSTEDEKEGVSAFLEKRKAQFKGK

CC(=O)CCO [4-hydroxy-2-butanone]
kcat [1]: 0.0075 s⁻¹

C=CC(C)=O [3-buten-2-one]
kcat [2]: at least 0.03 s^−1

C=CC(C)O (centres unmarked) [3-buten-2-ol]
turnover number [3]: about 10^−4 s^−1 substrate molecule per enzyme active site

B1: Short-chain dehydrogenase/reductase (Fatty alcohol forming acyl-CoA reductase) from Marinobacter aquaeolei VT8, SEQ ID NO: 7 (Uniprot A1U3L3) (Marinobacter … (protein)
chain: MNYFLTGGTGFIGRFLVEKLLARGGTVYVLVREQSQDKLERLRERWGADDKQVKAVIGDLTSKNLGIDAKTLKSLKGNIDHVFHLAAVYDMGADEEAQAATNIEGTRAAVQAAEAMGAKHFHHVSSIAAAGLFKGIFREDMFEEAEKLDHPYLRTKHESEKVVREECKVPFRIYRPGMVIGHSETGEMDKVDGPYYFFKMIQKIRHALPQWVPTIGIEGGRLNIVPVDFVVDALDHIAHLEGEDGNCFHLVDSDPYKVGEILNIFCEAGHAPRMGMRIDSRMFGFIPPFIRQSIKNLPPVKRITGALLDDMGIPPSVMSFINYPTRFDTRELERVLKGTDIEVPRLPSYAPVIWDYWERNLDPDLFKDRTLKGTVEGKVCVVTGATSGIGLATAEKLAEAGAILVIGARTKETLDEVAASLEAKGGNVHAYQCDFSDMDDCDRFVKTVLDNHGHVDVLVNNAGRSIRRSLALSFDRFHDFERTMQLNYFGSVRLIMGFAPAMLERRRGHVVNISSIGVLTNAPRFSAYVSSKSALDAFSRCAAAEWSDRNVTFTTINMPLVKTPMIAPTKIYDSVPTLTPDEAAQMVADAIVYRPKRIATRLGVFAQVLHALAPKMGEIIMNTGYRMFPDSPAAAGSKSGEKPKVSTEQVAFAAIMRGIYW
Km [4]: 8 mM | kcat [4]: 0.1 s⁻¹

B2: R-specific alcohol dehydrogenase from Lactobacillus kefiri, SEQ ID NO: 17 (Uniprot Q6WVP7) (Lentilactobacillus kefiri) (protein)
chain: MTDRLKGKVAIVTGGTLGIGLAIADKFVEEGAKVVITGRHADVGEKAAKSIGGTDVIRFVQHDASDEAGWTKLFDTTEEAFGPVTTVVNNAGIAVSKSVEDTTTEEWRKLLSVNLDGVFFGTRLGIQRMKNKGLGASIINMSSIEGFVGDPTLGAYNASKGAVRIMSKSAALDCALKDYDVRVNTVHPGYIKTPLVDDLEGAEEMMSQRTKTPMGHIGEPNDIAWICVYLASDESKFATGAEFVVDGGYTAQ
Km [5]: 19 mM | kcat [5]: 4 s⁻¹

B3: Short chain alcohol dehydrogenase-like protein from Hahella chejuensis, SEQ ID NO: 11 (Uniprot Q2SCE0) (Hahella chejuensis KCTC 2396) (protein)
chain: MNYFVTGGTGFIGRFLVPKLLKRGGTVYLLVREASLPKLDELRERWNASDEQVVGVVGDLAQPMLGVSEKDAAMLRGKVGHFFHLAAIYDMQASAESQEQANIEGTRNAVKLADSLKAACFHHVSSIAAAGLYRGIFREDMFEEAEKLDNPYLRTKHESEKVVREECQTPWRVYRPGMVVGHSKTGEIDKIDGPYYFFKLIQKLRSALPQWMPTVGLEGGRINIVPVDFVVDAMDHIAHAEGEDGKCFHLTDPDPYKVGEILNIFAEAGHAPKMAMRIDARMFGFIPPMIRQGIARLPPVQRMKNAVLNDLGIPDEVMSFINYPTRFDNRETERLLKGTAIAVPRLQDYSPAIWDYWERHLDPDLHKDRTLRGAVEGRVCVITGATSGIGLSAARKLAEAGAKVVIAARTLEKLQEVKKELEELGGEVYEYSVDLSDLEDCDRFVANVLKDLGHVDVLVNNAGRSIRRSIQHAFDRFHDFERTMQLNYFGSLRLIMGFAPSMLERRRGHIVNISSIGVLTNAPRFSAYVASKAALDAFSRCAAAEFSDKNVTFTTINMPLVRTPMISPTKIYDSVPTLTPEEAADLVAEAIIHRPKRIATRLGVFAQVLHSMAPKFSEIIMNTGFKMFPDSSAATGGKDGEKPKVSTEQVAFAAIMRGIHW
Km [4]: 5 mM | kcat [4]: 0.07 s⁻¹

B4: Alcohol dehydrogenase from Thermoanaerobacter brockii (Thermoanaerobium brockii), SEQ ID NO: 13 (Uniprot P14941) (Thermoanaerobacter brockii) (protein)
chain: MKGFAMLSIGKVGWIEKEKPAPGPFDAIVRPLAVAPCTSDIHTVFEGAIGERHNMILGHEAVGEVVEVGSEVKDFKPGDRVVVPAITPDWRTSEVQRGYHQHSGGMLAGWKFSNVKDGVFGEFFHVNDADMNLAHLPKEIPLEAAVMIPDMMTTGFHGAELADIELGATVAVLGIGPVGLMAVAGAKLRGAGRIIAVGSRPVCVDAAKYYGATDIVNYKDGPIESQIMNLTEGKGVDAAIIAGGNADIMATAVKIVKPGGTIANVNYFGEGEVLPVPRLEWGCGMAHKTIKGGLCPGGRLRMERLIDLVFYKRVDPSKLVTHVFRGFDNIEKAFMLMKDKPKDLIKPVVILA
Km [6]: 100 mM | kcat [6]: 0.5 s⁻¹
